Measured values reported in patent publication US9012166B2, “Method for assaying histone methylation enzyme activity” (Kyushu Institute of Technology, priority 2010, dated 2015).
*: point of attachment. AMC = Cc1cc(=O)oc2cc(N*)ccc12

Molecular target: T1, Set9 (His-Set9, His-Set7/9) (Homo sapiens, UniProt Q8WTS6)
T1 sequence (Q8WTS6 1-366): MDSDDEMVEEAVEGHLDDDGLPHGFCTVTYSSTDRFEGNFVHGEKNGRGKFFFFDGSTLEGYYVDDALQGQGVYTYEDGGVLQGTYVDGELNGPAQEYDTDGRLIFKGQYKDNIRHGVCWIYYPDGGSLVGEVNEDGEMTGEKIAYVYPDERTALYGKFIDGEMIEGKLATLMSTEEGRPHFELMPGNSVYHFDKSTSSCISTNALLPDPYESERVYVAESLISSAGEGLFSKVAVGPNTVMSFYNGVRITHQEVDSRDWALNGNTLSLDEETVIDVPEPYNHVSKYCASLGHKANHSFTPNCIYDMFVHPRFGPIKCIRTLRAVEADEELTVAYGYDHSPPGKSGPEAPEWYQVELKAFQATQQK
Assay: Substrate specificity / methylation of peptidyl MCAs by Set9
Assay type: biochemical
Settings: for methylation of peptidyl MCA by Set9: Example 6, His-Set9 0-1.5 μg/μL, right panel of FIG. 14; for methylation of peptidyl MCA by His-Set7/9: Example 13, AMC and peptidyl MCA fluorescence, FIGS. 25 and 26
Experimental: When Set9 was adopted as a histone methyltransferase, the following method was used. 10 μL of 2×HMT buffer (100 mM Tris-HCl (pH 8.5), 20 mM MgCl2, 40 mM KCl, 20 mM 2-mercaptoethanol, 500 mM sucrose), 2 μL of a BSA solution (30 μg/mL), 3 μL of His-Set9 (0, 0.33 to 10 μg/μL), and 1 μL of distilled water were mixed and then incubated at room temperature for 1 hour. Then, 2 μL of SAM (10 mM) and 2 μL of a peptidyl MCA solution (0.6 mM) were added thereto, which was then incubated at 37° C. for 1 hour. Thereafter, 30 μL of a trypsin solution (20 mg/mL) was added thereto, followed by incubation at 37° C. for 15 minutes. Then, the fluorescence intensity of the solution was measured at an excitation wavelength (λex) of 390 nm and a fluorescence wavelength (λem) of 460 nm. The final concentration of His-Set9 during the measurement of fluorescence intensity was 0, 0.05, 0.15, 0.5, or 1.5 μg/μL. The results of the assay for measuring histone methyltransferase activity are shown in the right panel of FIG. 14.
When Set9 was adopted as a histone methyltransferase, the following method was used. 10 μL of 2×HMT buffer (100 mM Tris-HCl (pH 8.5), 20 mM MgCl2, 40 mM KCl, 20 mM 2-mercaptoethanol, 500 mM sucrose), 0.4 μL of a BSA solution (150 μg/mL), 5.9 μL of His-Set9 (0, 0.051, 0.17, 0.51, 1.7 μg/μL), and 1.7 μL of distilled water were mixed and then incubated at room temperature for 1 hour. Then, 1 μL of SAM (20 mM) and 1 μL of a peptidyl MCA solution (1.2 mM) were added thereto, which was then incubated at 37° C. for 1 hour. Thereafter, 30 μL of a trypsin solution (20 mg/mL) was added thereto, followed by incubation at 37° C. for 15 minutes. Then, the fluorescence intensity of the solution was measured at an excitation wavelength (λex) of 390 nm and a fluorescence wavelength (λem) of 460 nm. The final concentration of His-Set9 during the measurement of fluorescence intensity was 0, 0.015, 0.05, 0.15, or 0.5 μg/μL. The results of the assay for measuring histone methyltransferase activity are shown in the right panel of FIG. 16.
When Set7/9 was adopted as a histone methyltransferase, the following method was used. 10 μL of 2×HMT buffer (100 mM Tris-HCl (pH 8.5), 20 mM MgCl2, 40 mM KCl, 20 mM 2-mercaptoethanol, 500 mM sucrose), 0.4 μL of a BSA solution (150 μg/mL), 4 µL of His-Set7/9 (0, 0.025 to 0.75 μg/μL), and 3.6 μL of distilled water were mixed and then incubated at room temperature for 1 hour. Then, 1 μL of SAM (final concentration: 0.1 mM) and 1 μL of a peptidyl MCA solution (1.2 mM) were added thereto, which was then incubated at 37° C. for 1 hour. Thereafter, 30 μL of a trypsin solution (20 mg/mL) was added thereto, followed by incubation at 37° C. for 15 minutes. Then, the fluorescence intensity of the solution was measured at an excitation wavelength (λex) of 330 nm and a fluorescence wavelength (λem) of 380 nm or at an excitation wavelength (λex) of 390 nm and a fluorescence wavelength (λem) of 460 nm. The final concentration of His-Set7/9 during the measurement of fluorescence intensity was 0, 0.005, 0.015, 0.05, or 0.15 μg/μL.

Substance | methylation of peptidyl MCA by Set9 | methylation of peptidyl MCA by His-Set7/9
Ac-QTARK-MCA [Ac-histone H3 (5-9)-MCA] | little methylation occurred | 
Ac-KRSK-MCA (Ac-KRSK-{AMC}; SMILES CC(=O)N[C@@H](CCCCN)C(=O)N[C@@H](CCCNC(=N)N)C(=O)N[C@@H](CO)C(=O)N[C@@H](CCCCN)C(=O)Nc1ccc2c(C)cc(=O)oc2c1; listed as Homo sapiens) [Ac-ERα (299-302)-MCA] |  | methylates
Ac-ARTKQTARK-MCA [Ac-histone H3 (1-9)-MCA] | little methylation occurred | does not methylate
Ac-QLATKAARK-MCA (Ac-QLATKAARK-{AMC}; SMILES CC(=O)N[C@@H](CCC(N)=O)C(=O)N[C@@H](CC(C)C)C(=O)N[C@@H](C)C(=O)N[C@H](C(=O)N[C@@H](CCCCN)C(=O)N[C@@H](C)C(=O)N[C@@H](C)C(=O)N[C@@H](CCCNC(=N)N)C(=O)N[C@@H](CCCCN)C(=O)Nc1ccc2c(C)cc(=O)oc2c1)[C@@H](C)O; listed as Homo sapiens) [Ac-histone H3 (19-27)-MCA] | little methylation occurred | 
Ac-ARTK-MCA (Ac-ARTK-{AMC}; SMILES CC(=O)N[C@@H](C)C(=O)N[C@@H](CCCNC(=N)N)C(=O)N[C@H](C(=O)N[C@@H](CCCCN)C(=O)Nc1ccc2c(C)cc(=O)oc2c1)[C@@H](C)O; listed as Homo sapiens) [Ac-histone H3 (1-4)-MCA] | methylation often occurred | 
Ac-ARK-MCA (Ac-Ala-Arg-Lys-{AMC}; SMILES CC(=O)N[C@@H](C)C(=O)N[C@@H](CCCNC(=N)N)C(=O)N[C@@H](CCCCN)C(=O)Nc1ccc2c(C)cc(=O)oc2c1; listed as Homo sapiens) [Ac-histone H3 (7-9/25-27)-MCA, acetyl-ARK (human histone H3 7-9 or 25-27)-MCA substrate] | little methylation occurred | 
Ac-LKSK-MCA (Ac-LKSK-{AMC}; SMILES CC(=O)N[C@@H](CC(C)C)C(=O)N[C@@H](CCCCN)C(=O)N[C@@H](CO)C(=O)N[C@@H](CCCCN)C(=O)Nc1ccc2c(C)cc(=O)oc2c1; listed as Homo sapiens) [Ac-p53 (369-372)-MCA] | methylation often occurred | 
Ac-KAARK-MCA (Ac-KAARK-{AMC}; SMILES CC(=O)N[C@@H](CCCCN)C(=O)N[C@@H](C)C(=O)N[C@@H](C)C(=O)N[C@@H](CCCNC(=N)N)C(=O)N[C@@H](CCCCN)C(=O)Nc1ccc2c(C)cc(=O)oc2c1; listed as Homo sapiens) [Ac-histone H3 (23-27)-MCA] | little methylation occurred | 
